# According to publication PMC11965559 (Nature Communications, 2024):
# T1: full-length Lot5 with N-terminal HT-tag (S. cerevisiae, UniProt P34234 1-306)
# T1 sequence (looked up): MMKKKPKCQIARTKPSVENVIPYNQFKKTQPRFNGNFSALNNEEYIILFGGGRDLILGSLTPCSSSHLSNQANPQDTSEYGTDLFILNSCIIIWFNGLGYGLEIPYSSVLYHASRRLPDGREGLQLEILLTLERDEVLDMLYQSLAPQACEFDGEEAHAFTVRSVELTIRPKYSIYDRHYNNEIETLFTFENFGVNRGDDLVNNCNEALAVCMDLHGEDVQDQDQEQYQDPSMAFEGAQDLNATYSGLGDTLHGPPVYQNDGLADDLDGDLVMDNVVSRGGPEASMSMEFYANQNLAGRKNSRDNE
# T2: D1/D2/F/E/G pentamer (5Sm) (S. cerevisiae, UniProt Q02260 1-109; Q06217 1-110; P54999 1-86; Q12330 1-94; P40204 1-77)
# T2 sequence (looked up) 1: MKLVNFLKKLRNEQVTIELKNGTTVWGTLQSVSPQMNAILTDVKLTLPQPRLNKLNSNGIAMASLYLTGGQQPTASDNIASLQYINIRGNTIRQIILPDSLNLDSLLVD
# T2 sequence (looked up) 2: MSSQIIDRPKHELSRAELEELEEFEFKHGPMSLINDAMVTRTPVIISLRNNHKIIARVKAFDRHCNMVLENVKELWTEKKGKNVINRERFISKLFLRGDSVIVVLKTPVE
# T2 sequence (looked up) 3: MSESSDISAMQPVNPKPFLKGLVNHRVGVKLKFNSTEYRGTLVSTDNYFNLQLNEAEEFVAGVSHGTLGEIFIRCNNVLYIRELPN
# T2 sequence (looked up) 4: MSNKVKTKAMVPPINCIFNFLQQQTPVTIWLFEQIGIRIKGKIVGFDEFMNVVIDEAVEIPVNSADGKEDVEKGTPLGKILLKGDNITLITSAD
# T2 sequence (looked up) 5: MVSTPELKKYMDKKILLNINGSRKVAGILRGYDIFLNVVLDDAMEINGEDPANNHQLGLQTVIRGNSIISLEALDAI
# T3: Brr1Δ(122-197) with N-terminal HT-tag (S. cerevisiae, UniProt Q99177 1-341, Δ(122-197))
# T3 sequence (looked up): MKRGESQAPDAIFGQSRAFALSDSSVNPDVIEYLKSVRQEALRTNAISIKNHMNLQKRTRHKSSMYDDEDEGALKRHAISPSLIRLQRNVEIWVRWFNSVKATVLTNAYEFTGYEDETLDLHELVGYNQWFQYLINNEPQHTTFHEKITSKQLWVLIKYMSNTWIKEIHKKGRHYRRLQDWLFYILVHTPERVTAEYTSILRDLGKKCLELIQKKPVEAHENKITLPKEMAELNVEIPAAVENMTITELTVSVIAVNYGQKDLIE
# B1: D3/B (SmD3/SmB subcomplex, HT-tag removed) (complex, S. cerevisiae)
# chain 1: MSKIQVAHSSRLANLIDYKLRVLTQDGRVYIGQLMAFDKHMNLVLNECIEERVPKTQLDKLRPRKDSKDGTTLNIKVEKRVLGLTILRGEQILSTVVEDKPLLSK
# chain 2: MTMNGIPVKLLNEAQGHIVSLELTTGATYRGKLVESEDSMNVQLRDVIATEPQGAVTHMDQIFVRGSQIKFIVVPDLLKNAPLFKKNS
# B2: Umini-snRNA (structured_RNA)
# RNA: GGGAAGUGUUACAGCUCUUUUAGAAUUUUUGGAGUAGGCUUUCUGGCUUUUCACCGGAAAGCCCCU
# B3: Brr1, full length, HT-tag removed (natural protein, S. cerevisiae, UniProt Q99177 1-341, looked up)
# chain: MKRGESQAPDAIFGQSRAFALSDSSVNPDVIEYLKSVRQEALRTNAISIKNHMNLQKRTRHKSSMYDDEDEGALKRHAISPSLIRLQRNVEIWVRWFNSVKATVLTNAYEFTGYEDETLDLLLLFLKNYLEDMPSKCTTVEKIISVLNQHSFPEKAEEKEENLQIDEEWAKNILVRLEKTKIDSVEDVKKVITEGDKHELVGYNQWFQYLINNEPQHTTFHEKITSKQLWVLIKYMSNTWIKEIHKKGRHYRRLQDWLFYILVHTPERVTAEYTSILRDLGKKCLELIQKKPVEAHENKITLPKEMAELNVEIPAAVENMTITELTVSVIAVNYGQKDLIE
# B4: HT-Brr1, full-length Brr1 with N-terminal HT-tag (natural protein, S. cerevisiae, UniProt Q99177 1-341, looked up)
# chain: B3 chain
# B5: F/E/G (SmF/SmE/SmG subcomplex, HT-tags removed) (complex, S. cerevisiae)
# chain 1: T2 sequence (looked up) 3
# chain 2: T2 sequence (looked up) 4
# chain 3: T2 sequence (looked up) 5
# B6: Lot5ΔC, Lot5 (residues 1–227), as used in GFC (domain or fragment, S. cerevisiae, UniProt P34234 1-227, looked up)
# chain: MMKKKPKCQIARTKPSVENVIPYNQFKKTQPRFNGNFSALNNEEYIILFGGGRDLILGSLTPCSSSHLSNQANPQDTSEYGTDLFILNSCIIIWFNGLGYGLEIPYSSVLYHASRRLPDGREGLQLEILLTLERDEVLDMLYQSLAPQACEFDGEEAHAFTVRSVELTIRPKYSIYDRHYNNEIETLFTFENFGVNRGDDLVNNCNEALAVCMDLHGEDVQDQDQEQ
# B7: HT-Lot5ΔC, Lot5 (residues 1–227) with N-terminal HT-tag (domain or fragment, S. cerevisiae, UniProt P34234 1-227, looked up)
# chain: B6 chain
# B8: D1/D2 (SmD1/SmD2 subcomplex, HT-tag removed) (complex, S. cerevisiae)
# chain 1: T2 sequence (looked up) 1
# chain 2: T2 sequence (looked up) 2
# Legend:
# [1] = target: B7; experiment: pull-down
# [2] = target: T1, full-length Lot5 with N-terminal HT-tag; experiment: pull-down
# [3] = target: B6; experiment: SEC
# [4] = target: SmD1 (1-109);SmD2;SmF;SmE;SmG (Saccharomyces cerevisiae;Saccharomyces …, UniProt Q02260;Q06217;P54999;Q12330;P40204 1-109;1-110;1-86;1-94;1-77, ||||); experiment: EMSA
# [5] = target: SmD1 (1-109);SmD2;SmF;SmE;SmG;SmD3 (1-88);SmB (1-105) (Saccharomyces cerevisiae;Saccharomyces …, UniProt Q02260;Q06217;P54999;Q12330;P40204;P43321;P40018 …, ||||||); experiment: EMSA
# [6] = target: SmD1 (1-109);SmD2;SmF;SmE;SmG;Brr1 (Saccharomyces cerevisiae;Saccharomyces …, UniProt Q02260;Q06217;P54999;Q12330;P40204;Q99177 1-109;1-110;1-86;1-94;1-77;1-341, |||||); experiment: EMSA
# [7] = target: T2, D1/D2/F/E/G pentamer (5Sm); experiment: SEC
# [8] = target: T2, D1/D2/F/E/G pentamer (5Sm); experiment: pull-down
# [9] = target: B4; experiment: pull-down
# [10] = target: T3, Brr1Δ(122-197) with N-terminal HT-tag; experiment: pull-down
# [11] = target: B3; experiment: SEC
# [12] = target: T2, D1/D2/F/E/G pentamer (5Sm); experiment: pull-down; remark: listed apart in the source
binder,measurement,setting,value
B1,binding result,[1],binds
same,binding result,[2],binds
same,binding result,[3],binds
B2,binding result,[4],binds
same,binding result,[5],binds
same,binding result,[6],binds
B3,binding result,[7],binds
B4,binding result,[8],binds
B5,binding result,[9],binds
same,binding result,[10],binds
same,binding result,[11],binds
B6,binding result,[7],binds
B7,binding result,[12],binds
B8,binding result,[1],binds
same,binding result,[2],binds
same,binding result,[3],binds
